These results are taken from patent US20110300139A1 (GENE TECHNO SCIENCE, published 2011).

In test [1] the target is T1, human α9 integrin (human, UniProt Q13797 30-1035).
T1 sequence: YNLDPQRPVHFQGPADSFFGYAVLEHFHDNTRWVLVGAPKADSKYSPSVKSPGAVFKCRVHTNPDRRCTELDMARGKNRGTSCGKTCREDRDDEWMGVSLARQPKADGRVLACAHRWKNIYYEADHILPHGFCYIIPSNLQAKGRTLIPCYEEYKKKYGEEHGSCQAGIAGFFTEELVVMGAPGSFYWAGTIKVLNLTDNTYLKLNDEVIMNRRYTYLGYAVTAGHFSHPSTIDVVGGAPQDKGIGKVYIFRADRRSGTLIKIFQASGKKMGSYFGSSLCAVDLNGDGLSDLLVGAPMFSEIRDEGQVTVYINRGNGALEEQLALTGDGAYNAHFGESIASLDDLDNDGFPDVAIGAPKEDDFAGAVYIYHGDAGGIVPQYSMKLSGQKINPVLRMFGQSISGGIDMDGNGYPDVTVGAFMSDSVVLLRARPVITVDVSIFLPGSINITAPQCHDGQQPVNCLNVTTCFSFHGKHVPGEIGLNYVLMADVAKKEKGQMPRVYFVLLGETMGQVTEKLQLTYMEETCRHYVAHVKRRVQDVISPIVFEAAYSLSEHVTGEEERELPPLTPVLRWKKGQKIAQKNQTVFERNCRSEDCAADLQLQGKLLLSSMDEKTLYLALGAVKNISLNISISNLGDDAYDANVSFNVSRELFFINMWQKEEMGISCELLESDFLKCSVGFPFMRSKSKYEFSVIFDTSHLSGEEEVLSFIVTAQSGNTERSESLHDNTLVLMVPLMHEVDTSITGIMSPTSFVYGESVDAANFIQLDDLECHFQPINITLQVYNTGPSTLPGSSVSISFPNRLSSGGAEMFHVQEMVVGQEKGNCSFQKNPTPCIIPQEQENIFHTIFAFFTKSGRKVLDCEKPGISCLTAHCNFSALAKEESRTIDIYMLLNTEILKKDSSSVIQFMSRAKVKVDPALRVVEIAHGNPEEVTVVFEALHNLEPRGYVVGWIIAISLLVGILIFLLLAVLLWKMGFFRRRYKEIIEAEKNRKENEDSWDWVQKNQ
Kind of test: cell-based or functional assay.

Test [2] has as its target T1, human α9 integrin. Kind of test: FACS binding assay on CHO/huα9 cells. The method, then: Mouse K33N antibody was tested at various concentrations, starting at 1.67 μg/ml and serial 3-fold dilutions, for binding to CHO/huα9 cells. Geometric mean channel fluorescence values (MCF; Y-axis) are plotted at each antibody concentration tested (X-axis) in the figure. EC₅₀ values were calculated using GraphPad Prism (GraphPad Software, San Diego, Calif.).
Each antibody was tested at various concentrations, starting at 5 μg/ml and serial 3-fold dilutions, for binding to CHO/huα9 cells. Geometric mean channel fluorescence values (MCF; Y-axis) are plotted at each antibody concentration tested (X-axis) in the figure. EC₅₀ values were calculated using GraphPad Prism (GraphPad Software, San Diego, Calif.).
Binding of mouse, chimeric and humanized K33N antibodies to human α9 integrin was examined in a FACS binding assay with CHO/huα9 cells. Approximately 5×10⁵ CHO/huα9 cells/test were washed with FACS Binding Buffer (PBS containing 0.5% BSA and 0.05% NaN₃) and suspended in 200 μl of FACS Binding Buffer containing various amounts of test antibody. After 30 min on ice, the cells were washed with FACS Binding Buffer. The cells stained with mouse K33N were then suspended in 100 μl of 1/200-diluted FITC-labeled goat anti-mouse IgG polyclonal antibody (SouthernBiotech) in FACS Binding Buffer. The cells stained with chimeric or humanized K33N were suspended in 100 μl of 1/200-diluted FITC-labeled goat anti-human IgG polyclonal antibody (SouthernBiotech) in FACS Binding Buffer. After 30 min on ice, the cells were washed with FACS Binding Buffer, suspended in 200 μl of FACS Binding Buffer, and analyzed using a FACScan flow cytometer (BD Biosciences, Franklin Lakes, N.J.). […] Between ChK33N and HuK33N antibodies, the binding pattern was very similar to each other (FIG. 22).
(Flow cytometry measures light scatter and fluorescence of single cells or particles in a stream.)

The next test deals with T2, human α4 integrin (human, UniProt P13612 34-1032).
T2 construct: whole, on cells; Expressed on CHO K1 cells and used as the negative screen for hybridomas; also called CHO K1 cells expressing human α4 integrin
T2 sequence (looked up): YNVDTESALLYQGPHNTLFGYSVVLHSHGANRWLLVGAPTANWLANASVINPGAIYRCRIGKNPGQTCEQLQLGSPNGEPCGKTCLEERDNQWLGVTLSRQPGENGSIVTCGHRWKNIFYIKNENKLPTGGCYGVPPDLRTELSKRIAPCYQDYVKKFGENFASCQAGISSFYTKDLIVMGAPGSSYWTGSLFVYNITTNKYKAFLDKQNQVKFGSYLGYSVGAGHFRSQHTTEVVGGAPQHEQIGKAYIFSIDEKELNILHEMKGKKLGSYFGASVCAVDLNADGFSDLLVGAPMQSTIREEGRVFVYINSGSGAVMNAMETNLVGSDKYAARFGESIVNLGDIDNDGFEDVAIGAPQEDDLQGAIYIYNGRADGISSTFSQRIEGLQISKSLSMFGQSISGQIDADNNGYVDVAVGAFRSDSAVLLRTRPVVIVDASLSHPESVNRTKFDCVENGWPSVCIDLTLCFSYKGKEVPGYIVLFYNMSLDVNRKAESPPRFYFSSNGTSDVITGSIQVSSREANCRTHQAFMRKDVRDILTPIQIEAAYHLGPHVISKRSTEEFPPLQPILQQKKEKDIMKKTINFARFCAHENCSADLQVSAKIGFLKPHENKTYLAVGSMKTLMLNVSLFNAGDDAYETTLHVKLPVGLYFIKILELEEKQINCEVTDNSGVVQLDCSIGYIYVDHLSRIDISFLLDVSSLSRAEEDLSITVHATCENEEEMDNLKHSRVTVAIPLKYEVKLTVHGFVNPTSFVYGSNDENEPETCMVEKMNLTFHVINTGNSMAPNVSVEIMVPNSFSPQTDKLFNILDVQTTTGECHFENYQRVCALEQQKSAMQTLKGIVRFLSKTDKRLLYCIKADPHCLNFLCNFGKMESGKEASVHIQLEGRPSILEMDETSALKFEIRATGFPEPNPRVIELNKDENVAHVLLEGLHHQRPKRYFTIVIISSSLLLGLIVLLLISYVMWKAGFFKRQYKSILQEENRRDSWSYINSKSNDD
Kind of test: hybridoma screening on transfected cells. The method, then:
Mouse monoclonal antibodies against human α9 integrin were prepared according to the subtractive immunization method (by Williams C. V., et al., 1992, Biotechniques 12:842-847). Briefly, three Balb/c mice were injected intraperitoneally with NIH-3T3 cells expressing human α9 integrin (Human α9/NIH-3T3 cells) at 3×10⁶ per mouse. At one and two weeks after the injection, the mice were injected intraperitoneally with 3×10⁶ cells/mouse of Human α9/NIH-3T3 cells, followed by another intravenous injection of the same cells at 2×10⁶ cell/mouse one week later. Hybridomas were prepared by the methods well known in the art (see, for example, Harlow et al., Antibodies: A Laboratory Manual, (Cold Spring Harbor Laboratory Press, 2nd ed. 1988); Hammerling, et al., in: Monoclonal Antibodies and T-Cell Hybridomas, pp. 563-681 (Elsevier, N.Y., 1981). Hybridoma clones producing monoclonal antibodies that were immunospecifically reactive with Human α9/CHO-K1 cells expressing human α9 integrin and with human melanoma cells endogenously expressing human α9 integrin but not with CHO K1 cells expressing human α4 integrin were established and a hybridoma clone (i.e., K33N) producing monoclonal antibody immunospecifically recognizing human α9 integrin were isolated.

The molecule “mouse anti human α9 integrin antibody Y9A2” yielded an IC50 of cell adhesion inhibition (G-361 cells to hTNC (AEIDGIEL)-BSA) with human α9 integrin [1] of 0.053 µg/mL.

B1: humanized K33N IgG1/κ antibody (antibody, V domains shown)
VH: QVQLVQSGAEVKKPGASVKVSCKASGYSFTSYYMNWVRQAPGQRLEWIGWIFPGSGNTKYNEKFKGKATLTADTSASTAYMELSSLRSEDTAVYYCARSWVSYERGYYFDYWGQGTLVTVSS
VL: DIQMTQSPSSLSASVGDRVTITCRASENIYYSLAWYQQKPGKAPKLLIYNANSLEDGVPSRFSGSGSGTQYTLTISSLQPEDFATYYCKQAYDVPYTFGQGTKVEIKR
notes: also called HuK33N
A word on the EC50: it is the concentration that produces a half-maximal response. A higher EC50 goes with lower potency in that assay. For B1, the EC50 with human α9 integrin [2] is 0.151 µg/mL. In addition, the “IC50 of cell adhesion inhibition (G-361 cells to hTNC (AEIDGIEL)-BSA)” value (“IC50 of cell adhesion inhibition” below) with human α9 integrin [1] turned out to be 0.084 µg/mL.

B2: mouse K33N monoclonal antibody (hybridoma FERM BP-10830) (antibody, mouse IgG1, V domains shown)
VH: QVQLQQSGPELVKPGASVKISCKASGYSFTSYYMNWVKKRPGQGLEWIGWIFPGSGNTKYNEKFKGKATLTADTSSSTAYMQVSSLTSEDSAVYFCARSWVSYERGYYFDYWGQGTSLTVSS
VL: DIQMTQSPASLAASVGETVTLTCRASENIYYSLAWYQQKQGKSPQLLIYNANSLEDGVPSRFSGSGSGTQYSMKINSMQPEDTATYFCKQAYDVPYTFGGGTKLEIK
notes: also called mouse K33N antibody
Consider B2, for which the EC50 with human α9 integrin [2] worked out at 0.104 µg/mL. For the same molecule, the “IC50 of cell adhesion inhibition” value in the test with human α9 integrin [1] was 0.075 µg/mL. Also, the binding result with human α4 integrin was “no binding”.

B3: chimeric K33N IgG1/κ antibody (antibody, V domains shown)
VH: B2 VH
VL: B2 VL
notes: Mouse K33N variable regions on human gamma-1 and kappa constant regions (vector pChK33N); also called ChK33N
In turn, B3 gave an EC50 in the test with human α9 integrin [2] of 0.143 µg/mL. Moreover, in the test with human α9 integrin [1], the “IC50 of cell adhesion inhibition” value came out at 0.09 µg/mL.
